# Data: the NTF2 design screens of Basanta et al. (2020)
# Assay: protease stability score; higher = more stable; yeast display proteolysis, trypsin and chymotrypsin;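 note: log10 excess protease needed over predicted unfolded state with 0 meaning unfolded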
row,Sequence,protease stability score
1,DEEKATEQAKEAIKALHTGDPRTMVEMLDKDARLRVGDNEYKGRDKVRNAMEEFTKRADSVRVDSVSVHGDKAVIHFKVRYNGQTIEVVLSLSVTNGRIVKAELDYRDEDTLRRLQK,1.11
2,DEEKDEDFARKVLQAVQTGDHDKIKKMADPNASATIGDKTWHGREQLSEAIRRWKEEADRVDVKSVSVQGDRASADMKVQHNGKMTDVRVFVEASNGRLKKLEIDTK,1.16
3,DEEKDEDVARQVAHAAATGDTKRLVELMRDNVRFQIGDKTFSGRENLSKAMERIDKHVDHLEVKSIEAHGDTVRADVTMTVNGKTHVVKIEAVVHNGHARELVLHDR,0.06
4,DEEKDEKIRKWQTNVKHGNEDEIRKNADKDAHVHVGDKQYHGHHRIRKLMTNERRKMRVDQKIETVSANNGRATVIVSATFDVNGQPLTDRENVVLIMHNGKIQEVRVDMDPDLHRQLQS,-0.51
5,DEEKDQKLATDLSDVIKTGDKEKMVKMADPNARIIVGDRVYHGREVILRWVRTLRERVDRIQIDSYDARDGKVRIIFQVRFDGRTTKIDLVVQYDNGHAKKIEVREK,0.075
6,DEEKEATKQVSEWIENMKSGDEDRLRELADKNAKVRYGDEEVHGMDQAAERWRNQRQKYDSLEVEVRDLKNHNGQVVVDQVERFNHNGKTDQRRVIITMERRPNHFVVQEVVQP,-0.331
7,DEEKEDKLLLKFARVVLQNNPEDLTRLMDPNAHLEVGDQTWHGREQVSDVLSKFAKRVDEVEVEDYDKRGNDLKVVMTLNINGKNIKVNLTFVVSNGRVTNVRLDPEAQKKIEK,0.37
8,DEEKEETTVEKLAKAVNTGDPDQIEDLADKDVRATIGDRQVHGREEMDRNMKEWEDKIDHLELKSVDVQGESAHANLDQRHNGRHVRMVAIAHVENGRAVEVVFRDQ,-0.157
9,DEEKEFHKMIKELDKVAKRNDEQSVQNLADKDVEVTYGDKSYHGREVLRRMFRDQLTRADKVRITMKSYTVRGDKAHAVLNVVLDHNGRQEHIDVKVTAQADNGRVRLKHVNIP,-0.039
10,DEEKEKEAADRASTNDPDEFRKMVDEDARVVVGEKQWHGREKVQKFYEDQKKRIDHLRVEHVDKDGNRVVITQFYQVNGVRVHAIFIITVHNGRLKMRSVQFTDEHAERRMKKAVS,0.528
11,DEEKEKRTARQVADVLRSGNPDEMMKLADKDAEVRVGDHVLHGREEISKLMHELRRRIDHLEIKHVEVDNGSVNIVYVVRHNGKTEVVVLHVDFHNGKIREMTVRSG,1.36
12,DEEKENRDIQTLMKNMVTGNEQEVMKNADKNVNLVVGDKTYHGREKIREFVRQLRERADHQEIKSVHATNGRAQADMVVNVNGKDIRFTVTMEASNGKAKHIQFDPNFFRKIQS,-0.079
13,DEEKEREMFKEFLNAFKSGDPDKLRKRMRQNVTLVYGDKSLHGRERAAKWFSELVKRVDHIEIESVKTDENHFDADVHLNVNGQNVIVHIRAKVENGRIVKVQYEYRDESQRRKLEK,1.18
14,DEEKHAESAIHHIIKVFKENNPDQFRRNADPNVKVNVGEHEVDGRDDLAKYMVDEANRVDHASYEIVHLDVRGDKARARVRVIVKFDGQERKYEYVFVFVEQNGEVVITKVQHQ,1.1
15,DEEKHAKEMADRFRKILDNGNEHSVEKMFDENARMSVGDRTIHGREKIAKKLITDVRRVDHLQVKVLSYHAHGDKIDLKVQQTLVVNGEDETRRYQMHLTRVNGRFVAVDAREQ,-0.07
16,DEEKHAKEVLDKFLKIAQEGDPKKMHELVDPNATFQVGDKEVHGRESAIESLQKFLEKVDHMRLEITEVRVRGNKFNIVAKLRADINGQKVDKRLIIVFTHHNGRLQMSHLRMD,2.34
17,DEEKHDDFARKLVRAVQSNDFRQQEKMFRQDVRMRVGDKEVHGREQFRDWLRTLDEEVDRYEVKSVTAQGDKVKIVAVFRINGKQFTLTVTIHVSNGKAVNMRINPDQQRQQER,0.104
18,DEEKHKQKLRKFAKDFVEGDPEEISKNVDEDVKVHIGDQDVSGREEAMKVIEEIKKRADHIQITSVEASNGRLRINVVIQVNGRNVTAHVTVDADNGRVKKVTMDPDQVRKLKS,0.827

row,Sequence,protease stability score
1,DEEKIAQKAVDRVEEAMNRGDPDTMKHLLDKDARITYGDQQYHGREEVIKFMDEFVENVDHVNVEFKEVEVHNGRARASARVVYTHNGQSHDVKLEVVFLIQGDEVRLTHLHYG,2.11
2,DEEKIARHVVRTWMENLKTGNFKEIEKMIDKDVEFEIGDKTVTGREEVRKRRKHEKDQADHIEVQVHDVRARGDKVNIDVVMEINNNGRTTTRRFVLVLSIHNGHAKIKMVTQG,1.09
3,DEEKIDRLLHEVVKAYLSGHSEKLKKLLKEDGQLHALSQTYHGKEQVMKVAEEFKRYGVELQIQDQKTEGDTLKVKAQAHKGGTTWEFEVKVKADGGKADELTIKVSEEAHKMIQRG,-0.298
4,DEEKIKQLLQKMIQYYVSGNKDHLKQLGKDDVQLHAADQTYHGLDQLLKVAEQFKKYGVKLEVKDVKVDGNTIHADVEVTMGGTQWTFKVTAEADGGKVDKVQFDVSEEAKKRIQKG,0.959
5,DEEKILKIIDRAVKAIQNGNEEEIRKLGMPNGEAQVGNDRNHGQDALVVMVKMYQKLGNEFEYKEKREEGDQVTTVVQVTFGGTTVEYEVNVQAEGGHIKRWEVRVDETFMKHVEKS,-0.125
6,DEEKILQDLIKTYQDLAKTNDFESMAKEADEDAHVNIGDKEVHGRESLNKHFRQLQKEVDHVEVDVRDYRVHGDKFEIKFVVNNQRDGQTDRKTVRIEYVQNGDKVRAKSFTTG,-0.176
7,DEEKILRVLKEVVKAIQNGNKEEVRKKGKPDVEVQLADERNRGVDQLVRLAEFDKKLGVQFEYKETRQKGGKMTTVVEVTLDGTTIRYEVHVEAEGGKVKRWEVRMDKKFIRIAQES,0.077
8,DEEKKANHFNKEFDRNVQRNNETELRKMVDPNARVNVGEQNYSGRNKMVKIITDWLRKYDKFTIDVRRIDVHGNRIFIDFEMVVVSNGQRRTTEIRVVVEEHNGRLHIRVWEIT,0.516
9,DEEKKARQALKNLVQNLRTGDEDELRKMIDKDATVRVGDEEIHGRERIAKTLLEEVKEVDHFEQHVRSITRDGDKLVIVVTQKNNHNGENQHRTVTIWIHERNGELLIQSMEYK,0.504
10,DEEKKARQLLKRWLRAVSQNDPKKLSEQMDPNARVEYGDKELHGMHQIENWLREQLKHIDHIEIDVKDMTVNGNEAQVQFRFVNRHNGKEDTKEARMQAELHNGTVKVRRIRYS,0.389
11,DEEKKARRWFESFIEVFRSNDPDQAKKLADPNVRAEYGDKHYHGREEFMKHFITLAERVDHVDIELHSLRIDGNRIVMNMRYRLRYNGRTESNEVTVILVIKNGKLHIQEVREG,1.41
12,DEEKKDKASEMVRAEQKNNPDKVNELADKNAKFNIGDKRIHGREHLKKTIETENREARYDIDEVDVRAKNGKVDVKMSMRVRHNGRPDRFHVEQTVRFNNGKAQEVTRHKKK,-0.299
13,DEEKKRRVAQKIAKLVQTGDPRDVETMMRDDVRANYGDKEYHGRENVSTFADRQVKKVDHRHIESVKNSGEQLVVDMRFVINGHNVRFRISFEFHNGKIKQANFDPKAIEHQDS,-0.176
14,DEEKLAENFLETMQNIAREGDEEKMADLFDPNAEIQVGDKSYQGREDVLELNRREFERYDHVRIDVKRFSVKNGQLDAEMSVTFSVNGKTDSHDQRLRATLHNGRLKAKHRTNG,0.476
15,DEEKLDKVMKMVRDALQKGDQEKAQKLVKPDGHFQVGDQELNGYDQVRKYYKKVKDLGAEAHVKKTDVRGNTFRLEYDARLKGVQVTIRLEVRVKDEKVDEARADMTEDYAKHVTKG,0.53
16,DEEKLDVARQYFEAVERGDEDRALELVDKDVRVDVGEKRVRGREEAKTQIRREEEEIRLRVEHVDFTAKGDRVRVRVVQVENINGRPVRFHYTMNMTMHNGRIKRIDVQIPEEVQEQLRG,-0.146
17,DEEKLEELAEEILQMLQTGDPDQARRMADEDVRAEYGDKQYTGKERLVEVVRKLKDRADHARINSFEVEGENIVADFVMVVDGQERRVRMTARVENGRIKEVRVKTS,0.96
18,DEEKLEKFARNFEKVVERGDEDKFRSQADPNVQAVIGDKRIHGDEHLAHWMNKLRSHIDHFRVVDMRVQGEEIHLDVKFVVDGRRVRFIIEIEVHNGHITRFTVHVTDEEKWRRREK,0.335
